Where a SMILES comes first, the peptide text is derived from it. [ ]: non-standard residue; d: D form. The star is where a group is joined. X1 = O=C(CCCCCCCn1cnc2c(Br)c(Br)c(Br)c(Br)c21)*
Assays:
Assay in all cases: Kinase panel residual activity
Assay type in all cases: biochemical
Details in all cases: compound at 1 micromolar
[1] = biological target: T1, ULK2 (Homo sapiens, UniProt Q8IYT8)
T1 sequence (Q8IYT8 1-1036): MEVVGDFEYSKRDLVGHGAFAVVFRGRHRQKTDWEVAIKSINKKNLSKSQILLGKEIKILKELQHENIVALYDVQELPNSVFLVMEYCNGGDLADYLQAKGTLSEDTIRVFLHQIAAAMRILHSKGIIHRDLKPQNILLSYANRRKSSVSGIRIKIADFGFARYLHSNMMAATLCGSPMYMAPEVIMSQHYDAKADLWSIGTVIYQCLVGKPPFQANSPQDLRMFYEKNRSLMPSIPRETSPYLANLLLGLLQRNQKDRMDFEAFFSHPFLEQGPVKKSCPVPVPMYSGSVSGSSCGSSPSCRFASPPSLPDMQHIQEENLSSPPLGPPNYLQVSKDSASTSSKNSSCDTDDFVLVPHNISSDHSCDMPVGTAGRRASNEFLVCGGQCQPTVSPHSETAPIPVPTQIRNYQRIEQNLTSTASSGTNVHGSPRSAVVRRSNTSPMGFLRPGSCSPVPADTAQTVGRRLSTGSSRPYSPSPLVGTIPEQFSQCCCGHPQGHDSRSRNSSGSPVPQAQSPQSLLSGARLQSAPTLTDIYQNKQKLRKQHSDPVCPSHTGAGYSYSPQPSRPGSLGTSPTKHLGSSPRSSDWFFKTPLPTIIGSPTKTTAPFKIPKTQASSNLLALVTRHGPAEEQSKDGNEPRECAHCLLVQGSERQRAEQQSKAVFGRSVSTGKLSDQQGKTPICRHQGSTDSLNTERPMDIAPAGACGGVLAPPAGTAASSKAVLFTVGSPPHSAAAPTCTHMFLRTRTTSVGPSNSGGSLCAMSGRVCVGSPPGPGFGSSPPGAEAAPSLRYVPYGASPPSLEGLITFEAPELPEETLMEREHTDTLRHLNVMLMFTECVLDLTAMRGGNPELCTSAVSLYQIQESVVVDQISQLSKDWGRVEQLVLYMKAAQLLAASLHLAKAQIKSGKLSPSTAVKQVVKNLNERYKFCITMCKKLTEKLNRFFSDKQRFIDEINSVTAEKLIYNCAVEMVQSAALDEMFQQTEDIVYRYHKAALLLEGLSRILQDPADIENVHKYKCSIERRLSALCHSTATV

[2] = biological target: SYK (Homo sapiens, UniProt P43405)
[3] = biological target: PKBb (Homo sapiens, UniProt P31751)
PKBb, sequence (P31751 whole entry): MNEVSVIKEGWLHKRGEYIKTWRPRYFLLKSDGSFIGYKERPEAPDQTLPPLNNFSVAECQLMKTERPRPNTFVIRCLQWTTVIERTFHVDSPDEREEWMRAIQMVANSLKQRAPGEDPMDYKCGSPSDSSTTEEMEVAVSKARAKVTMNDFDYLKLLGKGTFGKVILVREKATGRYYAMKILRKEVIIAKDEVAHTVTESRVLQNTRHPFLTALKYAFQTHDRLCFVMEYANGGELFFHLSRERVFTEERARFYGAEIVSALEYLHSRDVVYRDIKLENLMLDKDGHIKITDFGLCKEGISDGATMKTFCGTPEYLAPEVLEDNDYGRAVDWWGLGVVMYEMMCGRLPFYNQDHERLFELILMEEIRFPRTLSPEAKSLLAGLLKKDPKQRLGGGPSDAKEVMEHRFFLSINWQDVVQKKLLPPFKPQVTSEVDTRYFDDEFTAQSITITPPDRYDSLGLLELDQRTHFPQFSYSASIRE

[4] = biological target: HIPK3 (Homo sapiens, UniProt Q9H422)
HIPK3, sequence (Q9H422 whole entry, species assumed): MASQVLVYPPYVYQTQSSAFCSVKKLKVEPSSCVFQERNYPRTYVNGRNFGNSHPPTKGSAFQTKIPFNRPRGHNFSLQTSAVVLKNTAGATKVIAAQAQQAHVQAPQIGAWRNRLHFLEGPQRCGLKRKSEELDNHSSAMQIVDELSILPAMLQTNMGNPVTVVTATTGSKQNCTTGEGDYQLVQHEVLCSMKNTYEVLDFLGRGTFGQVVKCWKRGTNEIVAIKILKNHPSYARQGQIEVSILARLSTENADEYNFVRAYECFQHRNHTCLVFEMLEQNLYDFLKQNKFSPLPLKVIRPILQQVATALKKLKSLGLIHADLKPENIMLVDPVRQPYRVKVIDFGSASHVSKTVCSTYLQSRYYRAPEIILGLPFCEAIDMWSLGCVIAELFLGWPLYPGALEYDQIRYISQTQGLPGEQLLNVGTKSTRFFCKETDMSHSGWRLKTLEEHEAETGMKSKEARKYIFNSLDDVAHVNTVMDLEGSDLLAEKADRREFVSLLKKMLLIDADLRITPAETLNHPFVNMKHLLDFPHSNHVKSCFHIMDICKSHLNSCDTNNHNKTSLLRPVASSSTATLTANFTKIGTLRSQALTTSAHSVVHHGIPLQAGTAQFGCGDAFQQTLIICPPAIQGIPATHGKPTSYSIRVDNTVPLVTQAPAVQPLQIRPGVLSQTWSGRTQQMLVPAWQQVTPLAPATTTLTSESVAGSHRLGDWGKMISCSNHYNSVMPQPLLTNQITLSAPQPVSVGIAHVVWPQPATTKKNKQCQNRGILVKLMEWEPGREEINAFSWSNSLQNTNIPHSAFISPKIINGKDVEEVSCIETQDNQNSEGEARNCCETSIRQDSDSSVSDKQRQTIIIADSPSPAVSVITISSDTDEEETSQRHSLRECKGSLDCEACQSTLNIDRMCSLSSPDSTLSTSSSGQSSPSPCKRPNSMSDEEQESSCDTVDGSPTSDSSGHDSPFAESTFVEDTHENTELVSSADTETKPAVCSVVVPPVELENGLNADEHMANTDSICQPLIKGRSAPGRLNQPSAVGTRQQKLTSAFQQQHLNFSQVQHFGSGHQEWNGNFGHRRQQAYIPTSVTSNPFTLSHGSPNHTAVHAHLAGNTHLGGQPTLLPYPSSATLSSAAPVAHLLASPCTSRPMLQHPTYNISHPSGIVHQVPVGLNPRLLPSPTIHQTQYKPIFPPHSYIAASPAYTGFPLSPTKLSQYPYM

[5] = biological target: T2, MKK6 (Homo sapiens, UniProt P52564)
T2 sequence (P52564 1-334): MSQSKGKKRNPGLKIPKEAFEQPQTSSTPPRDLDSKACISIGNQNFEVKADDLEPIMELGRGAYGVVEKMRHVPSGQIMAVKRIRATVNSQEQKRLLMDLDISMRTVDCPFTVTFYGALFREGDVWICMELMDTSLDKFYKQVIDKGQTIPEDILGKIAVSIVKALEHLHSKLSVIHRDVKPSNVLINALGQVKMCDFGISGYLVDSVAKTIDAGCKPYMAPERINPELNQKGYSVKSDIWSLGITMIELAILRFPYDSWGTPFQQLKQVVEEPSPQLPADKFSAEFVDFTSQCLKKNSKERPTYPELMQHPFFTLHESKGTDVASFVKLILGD

[6] = biological target: SmMLCK (Homo sapiens, UniProt Q15746)
[7] = biological target: ABL (Homo sapiens, UniProt P00519)
ABL, sequence (P00519 whole entry, species assumed): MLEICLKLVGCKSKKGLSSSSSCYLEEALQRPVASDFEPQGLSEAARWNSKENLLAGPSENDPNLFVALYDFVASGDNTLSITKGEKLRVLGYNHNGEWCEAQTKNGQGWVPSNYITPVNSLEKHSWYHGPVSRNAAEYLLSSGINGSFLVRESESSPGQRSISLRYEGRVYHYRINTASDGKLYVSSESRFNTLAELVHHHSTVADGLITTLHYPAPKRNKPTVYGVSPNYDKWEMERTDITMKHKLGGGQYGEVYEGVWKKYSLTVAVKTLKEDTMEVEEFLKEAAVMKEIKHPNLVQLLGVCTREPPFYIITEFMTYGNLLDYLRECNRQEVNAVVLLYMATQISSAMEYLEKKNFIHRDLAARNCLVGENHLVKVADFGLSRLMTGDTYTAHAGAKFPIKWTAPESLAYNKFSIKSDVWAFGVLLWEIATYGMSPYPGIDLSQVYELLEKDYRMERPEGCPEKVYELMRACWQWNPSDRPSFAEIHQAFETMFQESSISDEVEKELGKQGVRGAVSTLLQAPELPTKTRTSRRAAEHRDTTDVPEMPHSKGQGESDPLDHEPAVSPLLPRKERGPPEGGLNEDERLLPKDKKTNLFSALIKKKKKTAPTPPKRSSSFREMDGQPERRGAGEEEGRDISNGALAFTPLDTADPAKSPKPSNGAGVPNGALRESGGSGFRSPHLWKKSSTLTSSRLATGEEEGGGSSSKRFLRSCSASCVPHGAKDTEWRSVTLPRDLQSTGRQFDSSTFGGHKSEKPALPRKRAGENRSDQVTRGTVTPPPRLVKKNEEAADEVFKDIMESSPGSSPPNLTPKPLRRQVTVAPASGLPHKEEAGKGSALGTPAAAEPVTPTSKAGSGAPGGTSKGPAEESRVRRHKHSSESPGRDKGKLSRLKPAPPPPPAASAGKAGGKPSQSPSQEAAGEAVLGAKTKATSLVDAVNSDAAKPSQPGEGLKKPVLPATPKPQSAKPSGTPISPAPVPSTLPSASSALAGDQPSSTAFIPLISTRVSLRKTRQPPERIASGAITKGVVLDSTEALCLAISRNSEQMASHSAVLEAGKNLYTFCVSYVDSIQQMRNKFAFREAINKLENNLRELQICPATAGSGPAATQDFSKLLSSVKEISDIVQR

[8] = biological target: HER4 (Homo sapiens, UniProt Q15303)
[9] = biological target: IGF-1R (Homo sapiens, UniProt P08069)
IGF-1R, sequence (P08069 31-1367, species assumed): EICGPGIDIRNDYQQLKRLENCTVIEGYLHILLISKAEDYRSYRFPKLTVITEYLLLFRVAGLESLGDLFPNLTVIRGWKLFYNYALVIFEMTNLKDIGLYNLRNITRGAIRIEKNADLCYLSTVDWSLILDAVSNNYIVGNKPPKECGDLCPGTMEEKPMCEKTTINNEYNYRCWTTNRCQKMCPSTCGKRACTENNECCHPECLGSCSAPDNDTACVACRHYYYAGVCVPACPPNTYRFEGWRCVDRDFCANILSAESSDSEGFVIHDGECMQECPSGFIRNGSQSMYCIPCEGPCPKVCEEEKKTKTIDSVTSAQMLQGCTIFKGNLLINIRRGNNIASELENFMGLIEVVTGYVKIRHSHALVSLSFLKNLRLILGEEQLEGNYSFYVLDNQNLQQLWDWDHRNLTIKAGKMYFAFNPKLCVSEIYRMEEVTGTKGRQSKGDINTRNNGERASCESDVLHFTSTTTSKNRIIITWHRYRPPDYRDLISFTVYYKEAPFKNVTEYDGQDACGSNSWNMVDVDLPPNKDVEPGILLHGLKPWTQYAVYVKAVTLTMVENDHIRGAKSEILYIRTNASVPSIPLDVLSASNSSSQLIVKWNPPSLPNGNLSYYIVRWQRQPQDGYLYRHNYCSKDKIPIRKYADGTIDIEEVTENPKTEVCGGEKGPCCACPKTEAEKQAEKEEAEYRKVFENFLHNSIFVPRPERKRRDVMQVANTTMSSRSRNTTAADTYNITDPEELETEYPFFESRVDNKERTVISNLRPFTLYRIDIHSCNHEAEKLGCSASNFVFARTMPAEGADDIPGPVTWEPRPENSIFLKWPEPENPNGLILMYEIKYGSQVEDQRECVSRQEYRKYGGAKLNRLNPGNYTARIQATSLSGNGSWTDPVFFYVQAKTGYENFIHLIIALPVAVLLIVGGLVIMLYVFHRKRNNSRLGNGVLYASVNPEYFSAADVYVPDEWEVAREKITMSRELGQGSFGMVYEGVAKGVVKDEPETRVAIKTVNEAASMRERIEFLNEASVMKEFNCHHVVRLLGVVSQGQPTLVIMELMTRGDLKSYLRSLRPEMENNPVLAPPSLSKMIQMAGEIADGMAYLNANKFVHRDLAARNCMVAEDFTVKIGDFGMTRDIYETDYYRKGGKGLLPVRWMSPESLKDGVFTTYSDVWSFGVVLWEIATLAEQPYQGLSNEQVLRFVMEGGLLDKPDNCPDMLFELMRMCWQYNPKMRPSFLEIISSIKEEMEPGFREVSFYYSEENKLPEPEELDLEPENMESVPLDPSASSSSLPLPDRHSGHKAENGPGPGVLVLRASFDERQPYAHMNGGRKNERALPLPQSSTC

[10] = biological target: T3, EPH-B2 (Homo sapiens, UniProt P29323)
T3 sequence (P29323 19-1055): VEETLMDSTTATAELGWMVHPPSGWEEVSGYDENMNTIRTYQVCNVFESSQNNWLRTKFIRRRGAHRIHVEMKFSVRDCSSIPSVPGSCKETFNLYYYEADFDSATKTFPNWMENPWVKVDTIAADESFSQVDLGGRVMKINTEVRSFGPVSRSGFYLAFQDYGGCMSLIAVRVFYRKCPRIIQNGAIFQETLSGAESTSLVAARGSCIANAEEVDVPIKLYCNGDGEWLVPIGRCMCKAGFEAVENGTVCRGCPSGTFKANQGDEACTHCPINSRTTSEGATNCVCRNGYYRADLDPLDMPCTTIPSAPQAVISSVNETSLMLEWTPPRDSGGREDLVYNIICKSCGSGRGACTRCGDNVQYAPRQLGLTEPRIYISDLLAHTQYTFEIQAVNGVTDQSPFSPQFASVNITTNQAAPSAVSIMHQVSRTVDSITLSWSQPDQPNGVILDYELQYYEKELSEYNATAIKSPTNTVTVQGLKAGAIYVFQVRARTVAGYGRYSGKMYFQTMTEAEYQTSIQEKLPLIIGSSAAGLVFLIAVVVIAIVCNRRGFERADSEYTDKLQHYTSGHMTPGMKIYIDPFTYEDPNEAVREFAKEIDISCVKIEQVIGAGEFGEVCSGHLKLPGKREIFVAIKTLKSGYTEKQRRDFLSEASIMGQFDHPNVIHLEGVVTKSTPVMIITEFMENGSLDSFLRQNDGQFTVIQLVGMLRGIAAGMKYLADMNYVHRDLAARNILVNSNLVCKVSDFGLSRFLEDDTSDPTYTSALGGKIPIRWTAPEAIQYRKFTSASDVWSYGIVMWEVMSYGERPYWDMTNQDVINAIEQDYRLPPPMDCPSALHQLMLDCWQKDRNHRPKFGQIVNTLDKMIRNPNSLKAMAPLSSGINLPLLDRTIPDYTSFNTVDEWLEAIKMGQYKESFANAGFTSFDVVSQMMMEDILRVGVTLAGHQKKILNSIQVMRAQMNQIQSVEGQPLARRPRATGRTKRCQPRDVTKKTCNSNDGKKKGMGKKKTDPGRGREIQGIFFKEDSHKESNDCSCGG

## NCCCC[C@H](NC(=O)[C@H](CC(=O)O)NC(=O)[C@H](CC(=O)O)NC(=O)[C@H](CC(=O)O)NC(=O)[C@H](CC(=O)O)NC(=O)[C@H](CC(=O)O)NC(=O)[C@@H](CC(=O)O)NC(=O)CCCCCCCn1cnc2c(Br)c(Br)c(Br)c(Br)c21)C(=O)O [TBBI-OcA-(D-Asp)-(L-Asp)5-(L-Lys)-OH] (X1-[dD]DDDDDK-OH)
[1]
  remaining activity at 1 µM: 110%
[2]
  remaining activity at 1 µM: 100%
[3]
  remaining activity at 1 µM: 72%
[4]
  remaining activity at 1 µM: 75%
[5]
  remaining activity at 1 µM: 82%
[6]
  remaining activity at 1 µM: 96%
[7]
  remaining activity at 1 µM: 101%
[8]
  remaining activity at 1 µM: 103%
[9]
  remaining activity at 1 µM: 116%
[10]
  remaining activity at 1 µM: 113%
